According to patent US11891445 (ABL BIO, dated 2024):

T1: recombinant human B7-H3 protein with a histidine tag linked to the C terminal (2318-B3/CF, R&D Systems) (human) (UniProt Q5ZPR3)
T1 sequence (looked up): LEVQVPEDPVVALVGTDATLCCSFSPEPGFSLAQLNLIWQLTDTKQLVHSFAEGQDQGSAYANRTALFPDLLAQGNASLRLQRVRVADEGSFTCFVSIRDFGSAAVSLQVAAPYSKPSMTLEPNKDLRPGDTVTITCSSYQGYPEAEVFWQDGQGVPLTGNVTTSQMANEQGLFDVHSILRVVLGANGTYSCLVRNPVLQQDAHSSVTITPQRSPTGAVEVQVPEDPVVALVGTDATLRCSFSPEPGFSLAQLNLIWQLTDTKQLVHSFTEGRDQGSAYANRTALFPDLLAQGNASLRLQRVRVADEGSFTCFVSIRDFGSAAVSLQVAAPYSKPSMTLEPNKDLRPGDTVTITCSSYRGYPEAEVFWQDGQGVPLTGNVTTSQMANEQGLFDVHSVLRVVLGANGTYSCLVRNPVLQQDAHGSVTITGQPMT

T2: recombinant human B7-H3 protein (bought antigen used for ELISA analysis and T cell activity analysis) (human, UniProt Q5ZPR3 29-461)
T2 construct: range 1-461; also called extracellular domain (ECD) of B7-H3 protein; not shown: C-terminal histidine tag or Fc region of human IgG1 (Sino Biological 11188-H02H)
T2 sequence (looked up): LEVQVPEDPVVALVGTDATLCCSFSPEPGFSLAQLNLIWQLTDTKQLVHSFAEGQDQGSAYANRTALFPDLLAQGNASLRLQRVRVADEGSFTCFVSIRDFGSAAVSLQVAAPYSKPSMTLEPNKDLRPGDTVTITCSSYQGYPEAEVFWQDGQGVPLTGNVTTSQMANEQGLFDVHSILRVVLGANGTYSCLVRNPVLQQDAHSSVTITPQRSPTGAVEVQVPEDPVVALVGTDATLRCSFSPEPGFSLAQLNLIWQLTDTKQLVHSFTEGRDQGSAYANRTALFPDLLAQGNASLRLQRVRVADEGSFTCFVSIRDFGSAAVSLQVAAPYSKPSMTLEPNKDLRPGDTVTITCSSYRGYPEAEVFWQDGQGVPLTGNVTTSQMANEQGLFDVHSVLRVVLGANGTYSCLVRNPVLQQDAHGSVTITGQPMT


The binders below were run against T1, recombinant human B7-H3 protein with a histidine tag linked to the C terminal (2318-B3/CF, R&D Systems) (human) (assay: ELISA, soluble scFv on coated B7-H3-His 100 ng per well, anti-HA HRP).

absorbance at 450 nm	Binder
1	anti-B7-H3 scFv clone B5 (soluble monoclonal scFv) (scFv, part only; not given: linker, domain order and HA tag, V domains shown, not shown: another chain or arm of the molecule; small tags and cut ends) VH: EVQLLESGGGLVQPGGSLRLSCAASGFTFSDYAMSWVRQAPGKGLEWVSSISSGSGSIYYADSVKGRFTISRDNSKNTLYLQMNSLRAEDTAVYYCAKNLIPLDYWGQGTLVTVSS VL: QSVLTQPPSASGTPGQRVTISCSGSSSNIGSNAVSWYQQLPGTAPKLLIYYNSHRPSGVPDRFSGSKSGTSASLAISGLRSEDEADYYCGSWDASLNAYVFGGGTKLTVL
1	anti-B7-H3 scFv clone D8G (soluble monoclonal scFv) (scFv, part only; not given: linker, domain order and HA tag, V domains shown, not shown: another chain or arm of the molecule; small tags and cut ends) VH: EVQLLESGGGLVQPGGSLRLSCAASGFTFSSYSMSWVRQAPGKGLEWVSGIYSDGSNTYYADSVKGRFTISRDNSKNTLYLQMNSLRAEDTAVYYCAKMLHRFDYWGQGTLVTVSS VL: QSVLTQPPSASGTPGQRVTISCSGSSSNIGSNSVTWYQQLPGTAPKLLIYADSQRPSGVPDRFSGSKSGTSASLAISGLRSEDEADYYCGTWDSSLNAYVFGGGTKLTVL
1	anti-B7-H3 scFv clone C4I (soluble monoclonal scFv) (scFv, part only; not given: linker, domain order and HA tag, V domains shown, not shown: another chain or arm of the molecule; small tags and cut ends) VH: EVQLLESGGGLVQPGGSLRLSCAASGFTFSGYYMSWVRQAPGKGLEWVSLISPSSGSIYYADSVKGRFTISRDNSKNTLYLQMNSLRAEDTAVYYCAKGLTKFDYWGQGTLVTVSS VL: QSVLTQPPSASGTPGQRVTISCTGSSSNIGSNDVSWYQQLPGTAPKLLIYANSHRPSGVPDRFSGSKSGTSASLAISGLRSEDEADYYCGSWDDSLSGYVFGGGTKLTVL
1	anti-B7-H3 scFv clone F6V (soluble monoclonal scFv) (scFv, part only; not given: linker, domain order and HA tag, V domains shown, not shown: another chain or arm of the molecule; small tags and cut ends) VH: EVQLLESGGGLVQPGGSLRLSCAASGFTFSDYAMSWVRQAPGKGLEWVSGISPGGSNTYYADSVKGRFTISRDNSKNTLYLQMNSLRAEDTAVYYCAKDAWIARLLLFDYWGQGTLVTVSS VL: QSVLTQPPSASGTPGQRVTISCSGSSSNIGSNAVTWYQQLPGTAPKLLIYYNNKRPSGVPDRFSGSKSGTSASLAISGLRSEDEADYYCGTWDDSLSGYVFGGGTKLTVL
1	anti-B7-H3 scFv clone D8G M1 (soluble monoclonal scFv) (scFv, part only; not given: linker, domain order and HA tag, V domains shown, not shown: another chain or arm of the molecule; small tags and cut ends) VH: EVQLLESGGGLVQPGGSLRLSCAASGFTFSSYSMSWVRQAPGKGLEWVSGIYSDASNTYYADSVKGRFTISRDNSKNTLYLQMNSLRAEDTAVYYCAKMLHRFDYWGQGTLVTVSS VL: QSVLTQPPSASGTPGQRVTISCSGSSSNIGSNSVTWYQQLPGTAPKLLIYADSQRPSGVPDRFSGSKSGTSASLAISGLRSEDEADYYCGTWDSSLNAYVFGGGTKLTVL
1	anti-B7-H3 scFv clone D8G M3 (soluble monoclonal scFv) (scFv, part only; not given: linker, domain order and HA tag, V domains shown, not shown: another chain or arm of the molecule; small tags and cut ends) VH: EVQLLESGGGLVQPGGSLRLSCAASGFTFSSYSMSWVRQAPGKGLEWVSGIYSDASNTYYADSVKGRFTISRDNSKNTLYLQMNSLRAEDTAVYYCAKMLHRFDYWGQGTLVTVSS VL: QSVLTQPPSASGTPGQRVTISCSGSSSNIGSNSVTWYQQLPGTAPKLLIYADVQRPSGVPDRFSGSKSGTSASLAISGLRSEDEADYYCGTWDSSLNAYVFGGGTKLTVL

These binders were tested against T2, recombinant human B7-H3 protein (bought …) (assay: ELISA on plate-coated recombinant human B7-H3).
Experimental: Specifically, after diluting the recombinant human B7-H3 protein at a concentration of 1 µg/ml and putting it into a 96-well plate (Nunc-Immuno Plates, NUNC) in 100 µl per well, it was reacted at 4° C. for 16 hrs for coating. The recombinant human B7-H3 protein used in Example 1 was used here.
Then, after removing the protein and washing it with PBST, a PBS buffer comprising 1% BSA (bovine serum albumin) was put at 200 µl per well and it was reacted at 37° C. for 2 hrs to block non-specific binding. Then, after diluting anti-B7-H3 antibodies prepared in Example 2 at a concentration of 10 µg/ml on the 96-well plate, 100 µl was put in each well and it was reacted at 37° C. for 1 hr. Then after it was washed with PBST. In order to detect antibodies bound to human B7-H3, HRP-connected anti-human IgG F(ab')2 antibody (Goat anti-Human IgG F(ab')2 Cross-Adsorbed Secondary Antibody, HRP, Pierce, 31414) was diluted by 1:10,000 in PBS comprising 1% bovine serum albumin (BSA), and 100 µl was put per well and it was reacted at 37° C. for about 1 hr. After washing it with PBST again, TMB (Tetramethylbenzidine, Sigma, T0440) 100 µl was put to develop color. After reacting it at RT for 5-10 min, 50 µl of 1N H_2SO_4 was put to finish the reaction, and the absorbance at 450 nm and 650 nm was measured by using a micro plate reader (molecular device).

EC50 (read off the curve) [nM]	Binder
~0.02	anti-B7-H3 antibody D8G M1 (full IgG form) (antibody, V domains shown) VH: EVQLLESGGGLVQPGGSLRLSCAASGFTFSSYSMSWVRQAPGKGLEWVSGIYSDASNTYYADSVKGRFTISRDNSKNTLYLQMNSLRAEDTAVYYCAKMLHRFDYWGQGTLVTVSS VL: QSVLTQPPSASGTPGQRVTISCSGSSSNIGSNSVTWYQQLPGTAPKLLIYADSQRPSGVPDRFSGSKSGTSASLAISGLRSEDEADYYCGTWDSSLNAYVFGGGTKLTVLG
~0.02	anti-B7-H3 antibody D8G M3 (full IgG form) (antibody, V domains shown) VH: EVQLLESGGGLVQPGGSLRLSCAASGFTFSSYSMSWVRQAPGKGLEWVSGIYSDASNTYYADSVKGRFTISRDNSKNTLYLQMNSLRAEDTAVYYCAKMLHRFDYWGQGTLVTVSS VL: QSVLTQPPSASGTPGQRVTISCSGSSSNIGSNSVTWYQQLPGTAPKLLIYADVQRPSGVPDRFSGSKSGTSASLAISGLRSEDEADYYCGTWDSSLNAYVFGGGTKLTVLG
